Residue numbers refer to the chain shown, from its start.
Assays:
[1] = target: T1, Human Pancreatic Lipase (human, UniProt P16233 17-465, in ELISA and phage selections: biotin (EZ link NHS-biotin) on free NH2-groups, molar ratio biotin to lipase 15 to 1; not biotinylated in the enzyme activity assay); test: phage display selection in solution with biotinylated HPL, capture on streptavidin beads
T1 construct: mature; Natural enzyme purified from a human source; In ELISA it was captured as biotinylated HPL on coated streptavidin; also called HPL; biotinylated HPL
T1 sequence (looked up): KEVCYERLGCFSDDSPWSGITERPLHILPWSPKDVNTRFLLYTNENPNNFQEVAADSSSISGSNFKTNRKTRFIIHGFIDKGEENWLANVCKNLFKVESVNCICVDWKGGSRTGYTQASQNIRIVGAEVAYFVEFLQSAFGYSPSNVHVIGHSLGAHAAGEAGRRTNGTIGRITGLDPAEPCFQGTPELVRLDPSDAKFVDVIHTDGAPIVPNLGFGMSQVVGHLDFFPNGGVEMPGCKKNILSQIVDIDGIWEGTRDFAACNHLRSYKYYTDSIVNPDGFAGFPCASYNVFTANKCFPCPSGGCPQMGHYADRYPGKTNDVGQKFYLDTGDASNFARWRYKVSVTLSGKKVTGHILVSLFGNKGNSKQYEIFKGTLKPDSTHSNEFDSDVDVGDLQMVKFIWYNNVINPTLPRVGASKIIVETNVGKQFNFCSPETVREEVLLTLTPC
Description: Free V_HH fragments were removed by precipitation of phage from the culture supernatant with PEG6000, thereby avoiding a disturbing competition between phage bound and free V_HH fragments. "In solution" capture of *E. coli* phage exposing HPL specific antibody fragments was performed with in vitro biotinylated lipase (EZ link NHS-biotin) covalently coupled to free NH_2-groups of the lipase according to the instructions of the supplier; the molar ratio between biotin and lipase was 15 to 1). For selection 15 nM and 40 nM Human Pancreatic Lipase was used in round one and 0.6 nM and 3 nM in round two. The carboxy terminal domain was prepared by proteolysis with chymotrypsin and purified with reversed phase HPLC. Lipase was biotinylated and used for selection of the immune library (combined short hinge and long hinge) at 15 and 70 nM during round one and at 1 and 3 and 15 nM during round two. During the binding phase of the selection "application conditions" (inclusion of 5.3 mM cholic acid and 36 mM deoxycholate) were used.

[2] = target: T1, Human Pancreatic Lipase; test: ELISA, yeast culture medium on biotinylated HPL captured by streptavidin
Description: For ELISA in vitro biotinylated HPL (prepared as described in paragraph 2.2) was immobilised indirectly via streptavidin. Streptavidin was coated at 5 µg/ml in Phosphate Buffered Saline (PBS) during two hours at room temperature in MAXISORB plates (NUNC). The coat solution was removed and, after washing with 0.05 vol % Tween-20 in PBS (PBST), the wells were blocked during 30 minutes at room temperature with a 4 wt % skimmed milk solution made in PBS. Biotinylated HPL was captured by the coated streptavidin during 16 hours at 4° C. from a solution with a concentration of 2.5 µg/ml enzyme in PBST, followed by washing of the plate with PBTS to remove free biotinylated HPL.
Two clones from each construct were grown for 24 hours at 30° C. in YNB medium (0.67% Yeast Nitrogen without amino acids (Difio)) containing 2% glucose. For V_HH gene expression both pre-cultures were diluted 1/10 in 1 ml of YPD medium (1% yeast extract, 2% peptone, 2% glucose, 2% galactose) for induction of the GAL7 promoter and grown during 48 hours at 30° C. using 8 wells culture plates for cultivation. The V_HH production in the medium fraction of these clones was examined by analysis on a Coomassie blue stained polyacrylamide gel. Their functional characteristics were confirmed in ELISA on indirectly immobilised biotinylated HPL and in the lipase enzyme activity assay.

[3] = target: T2, protein A (UniProt P38507 37-477); test: affinity chromatography on protein A sepharose
T2 construct: also called protein A sepharose (Pharmacia)

[4] = target: T1, Human Pancreatic Lipase; test: ELISA on biotinylated HPL, E. coli and yeast produced VHH

B1: HPL#11 (VHH)
VHH: QVQLQDSGGGLVQAGGSLRLSCAASGSIFSSDLMGWYRQAPGKEREAVARITRGGTTSYADSVKGRFTISRDNAKNTMYLQMNSLKPEDTAVYYCNARRSNYDRSWGDYWGQGTQVTVSS
notes: Llama VHH; E. coli form (pUR5084): VHH with hinge and C-terminal myc-tag; Yeast forms: PstI/BstEII VHH fragment, untagged (pUR5091) or with myc-tag and hexahistidine tail (pUR5099); also called anti-HPL VHH fragment HPL#11
Q: Does B1 bind [1]?
A: binds

B2: HPL#12 (VHH)
VHH: QVQLQESGGGLVQAGGSLRLSCAASGSIGSIHTMGWYRQTPGKERDVVATIQDGGSTNYADSVKGRFTISRDNTLNTVYLQMNDLKPEDTAVYYCNADVRPYRTSRYLEVWGQGTLVTVSS
notes: Llama VHH produced in E. coli from the phagemid, with hinge and C-terminal myc-tag; also called anti-HPL VHH fragment HPL#12
Q: Does B2 bind [1]?
A: binds

B3: HPL#14 (VHH)
VHH: B2 VHH with K43T, T74I, D84S, Y94H, V110L
notes: Llama VHH; Yeast form (pUR5265): PstI/NotI fragment including the hinge region, followed by myc- and hexahistidine tags; also called anti-HPL VHH fragment HPL#14
Q: Does B3 bind [2]?
A: binds

B4: HPL#18 (VHH)
VHH: QVQLQDSGGGLVQAGGSLRLSCAASGTIGDIYTMAWHRQAPGKERELVASATESGSPNYADPVKGRFTISRDNGKLTVYLQMNSLKPEDTAVYYCNALIRRKFTSEYNEYWGQGTQVTVSS
notes: Llama VHH; E. coli form (pUR5086): with hinge and myc-tag; Yeast forms: PstI/BstEII fragment, untagged (pUR5092) or with myc/His6 tags (pUR5263); also called anti-HPL18; αHPL18
Q: Does B4 bind [2]?
A: binds

B5: HPL#19 (VHH)
VHH: QVQLQDSGGGLVQTGGSLRLSCAASGPIGDVYLMGWYRQAPGKQREMVASITATGPPNYTDSVKGRFTISRDNDKNTEYLQMNNLKPEDTAVYYCNAQVRVRFSSDYTNYWGQGTQVTVSSEPKTPKPQP
notes: Llama VHH; E. coli form (pUR5087): with hinge and myc-tag; Yeast forms: PstI/BstEII fragment, untagged (pUR5093) or with myc/His6 tags (pUR5264); also called anti-HPL VHH fragment HPL#19
Q: What does the source list for B5?
A: binding result [3]: no binding; binding result [2]: binds

B6: HPL#15 (VHH)
VHH: QVQLQESGGGLVQAGGSLRLSCAASGSISSINVMGWFRQAPGKQRELVASITSGGSTNYADSLKGRFTISRDNAKNAVYLQMNNLKPEDTAVYYCNAHITPAGSSNYVYGYWGHGTKVTVSS
notes: Llama VHH; E. coli form (pUR5095): with hinge and myc-tag; Yeast forms: PstI/BstEII fragment, untagged (pUR1403) or with myc/His6 tags (pUR5097); also called anti-HPL VHH fragment HPL#15
Q: Does B6 bind [2]?
A: binds

B7: HPL#13 (VHH)
VHH: QVQLQESGGGLVQAGGSLRLSCAASGTILSIIYMDWYRQTPGKQRELVGRITAGGSTNYADSAKGRFTISKDNAKNTVYLQMNSLKPEDTAVYYCNALITRWDKSVNDYWGQGTQVTVSS
notes: Llama VHH; E. coli form (pUR5082): with hinge and myc-tag; Yeast forms: PstI/BstEII fragment, untagged (pUR5090) or with myc/His6 tags (pUR5098); also called anti-HPL VHH fragment HPL#13
Q: Does B7 bind [4]?
A: binds

From US7361741 (LIPTON DIVISION OF CONOPCO, dated 2008)
